Data taken from the supplement of paper PMC7125110.
± gives the standard error. For some of these results: This sample holds only a part of the variants without activity.

B1: glmS ribozyme (parent)
chain: AUAAAAGCGCCAGAACUACAGAAAUGUAGUUGACGAGGAGGAGGUUUAUCGAAUUUUCGGCGGAUGCCUCCAAA

What was measured:
Settings in all cases: with glucosamine-6-phosphate
glucosamine-6-phosphate [1] = variants of: B1; assay: kcat; higher = faster cleavage; RNA array
Procedure, shortened: (§1)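 The measurements used barcoded ribozyme variants on sequenced MiSeq chips, transcribed in situ by E. coli RNA polymerase and tracked at 37 °C with a hybridised Cy3 probe. Glucosamine-6-phosphate, 40 μM to 10 mM in HEPES/KCl/Mg(OAc)2 buffer, was flowed in while tiles were imaged over ~14 h. Baseline-normalised signals, also normalised to non-cleaving reference variants, gave per-tile medians that were fit to one- or two-exponential decays for kobs. kcat and KM resulted from weighted Michaelis–Menten fits across concentrations.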

glucosamine-6-phosphate [2] = variants of: B1; assay: self-cleavage kobs at 2500 uM GlcN6P; higher = faster cleavage; RNA array
Procedure, shortened: as §1

glucosamine-6-phosphate [3] = variants of: B1; assay: self-cleavage kobs at 10000 uM GlcN6P; higher = faster cleavage; RNA array
Procedure, shortened: as §1

glucosamine-6-phosphate [4] = variants of: B1; assay: self-cleavage kobs at 640 uM GlcN6P; higher = faster cleavage; RNA array
Procedure, shortened: as §1

glucosamine-6-phosphate [5] = variants of: B1; assay: self-cleavage kobs at 40 uM GlcN6P; higher = faster cleavage; RNA array
Procedure, shortened: as §1

glucosamine-6-phosphate [6] = variants of: B1; assay: KM; higher = weaker cofactor use; RNA array
Procedure, shortened: as §1

glucosamine-6-phosphate [7] = variants of: B1; assay: self-cleavage kobs at 160 uM GlcN6P; higher = faster cleavage; RNA array
Procedure, shortened: as §1

Variant	kcat (glucosamine-6-phosphate [1]) [s⁻¹]	self-cleavage kobs at 2500 uM GlcN6P (glucosamine-6-phosphate [2]) [s⁻¹]	self-cleavage kobs at 10000 uM GlcN6P (glucosamine-6-phosphate [3]) [s⁻¹]	self-cleavage kobs at 640 uM GlcN6P (glucosamine-6-phosphate [4]) [s⁻¹]	self-cleavage kobs at 40 uM GlcN6P (glucosamine-6-phosphate [5]) [s⁻¹]	KM (glucosamine-6-phosphate [6]) [µM]	self-cleavage kobs at 160 uM GlcN6P (glucosamine-6-phosphate [7]) [s⁻¹]
C11A C71A	6.72e-05 ± 2.1e-05	2.11e-05 ± 9e-06	4.87e-05 ± 6.4e-06				
G60A G66C	< 1e-05	< 1e-05	< 1e-05	< 1e-05			
G51A U54A G59A C68G	2.9e-05 ± 7.6e-06						
C16A A39C U65G	5.91e-05 ± 2.8e-05	8.69e-05 ± 3e-05					
C16A A48C	< 1e-05				< 1e-05		
G44U U55G	0.000311 ± 3.4e-05	0.000204 ± 3.6e-05	0.00025 ± 4.1e-05	7.46e-05 ± 1.3e-05		1860 ± 400	
A48G U55C	0.000123 ± 9.6e-06	0.000125 ± 2.5e-05	0.000113 ± 1.3e-05	7.4e-05 ± 2.3e-05		458 ± 210	
U46G C68U	0.00128 ± 0.00018	0.00102 ± 0.00018	0.00116 ± 0.00011	0.000378 ± 5.2e-05	5.92e-05 ± 9.5e-06	1170 ± 300	0.000148 ± 2.3e-05
G13U C34U	< 1e-05	< 1e-05			< 1e-05		
A36C C68A	1.33e-05 ± 2.1e-06						
U46A U69G	7.21e-05 ± 2.1e-05	8.42e-05 ± 1.3e-05	4.27e-05 ± 1.3e-05	0.000107 ± 1.7e-05			
G29C	0.0045 ± 0.0012	0.00239 ± 0.0001	0.00377 ± 0.00011	0.000839 ± 4.1e-05	8.88e-05 ± 1.6e-06	2300 ± 720	0.000212 ± 8.4e-06
C34G C71G	2.07e-05 ± 5.7e-06						
G13U G37U	< 1e-05		< 1e-05	< 1e-05			
A12C U69A	0.000833 ± 0.00013	0.00027 ± 4.6e-05	0.000614 ± 9.4e-05	0.000117 ± 2.1e-05		4330 ± 1100	
A52U C68A	2.14e-05 ± 8.2e-06						
G29A C68U	0.000627 ± 0.0001	0.000374 ± 4.7e-05	0.000549 ± 5.1e-05	0.000122 ± 2.6e-05	2.8e-05 ± 8.3e-06	1720 ± 550	6.11e-05 ± 8.5e-06
U49A	2.06e-05 ± 1.8e-06	2.11e-05 ± 3e-06	1.9e-05 ± 1.6e-06		< 1e-05		
G40A A52U	0.000228 ± 7.9e-05	9.49e-05 ± 1.5e-05	0.000146 ± 2.3e-05				

Variant	kcat (glucosamine-6-phosphate [1]) [s⁻¹]	self-cleavage kobs at 2500 uM GlcN6P (glucosamine-6-phosphate [2]) [s⁻¹]	self-cleavage kobs at 10000 uM GlcN6P (glucosamine-6-phosphate [3]) [s⁻¹]	self-cleavage kobs at 640 uM GlcN6P (glucosamine-6-phosphate [4]) [s⁻¹]	self-cleavage kobs at 40 uM GlcN6P (glucosamine-6-phosphate [5]) [s⁻¹]	KM (glucosamine-6-phosphate [6]) [µM]	self-cleavage kobs at 160 uM GlcN6P (glucosamine-6-phosphate [7]) [s⁻¹]
A39U G62A	< 1e-05			< 1e-05	< 1e-05		< 1e-05
G37U C70A	1.53e-05 ± 2e-06						
G37C U54G U55G	5.85e-05 ± 2.8e-06		4.79e-05 ± 1.5e-05			2190 ± 470	
U56G C58G	0.000173 ± 4.6e-06	0.000103 ± 1.4e-05	0.000145 ± 2.1e-05	4.42e-05 ± 1e-05		1800 ± 110	
U31A C68G	3.4e-05 ± 9.3e-07	2.78e-05 ± 1.1e-05	3.32e-05 ± 8.1e-06			408 ± 78	
A48C U56A	0.000146 ± 3.6e-05	7.8e-05 ± 1.6e-05	0.000107 ± 1.7e-05				
C10G C50U	< 1e-05		< 1e-05		< 1e-05		
G32U U69A	9.32e-05 ± 6.2e-06	9.1e-05 ± 1.4e-05	8.84e-05 ± 1.1e-05	8.92e-05 ± 1.9e-05		142 ± 64	
A15U G66C	0.000125 ± 1.5e-05	3.02e-05 ± 1.1e-05	6.96e-05 ± 1.2e-05			7900 ± 1900	
G13C U55G	0.000125 ± 2.7e-05	6.8e-05 ± 9.4e-06	9.6e-05 ± 1.2e-05				
G38A C50G	3.77e-05 ± 1.1e-05	3.46e-05 ± 1.4e-05		3.79e-05 ± 1.3e-05			6.25e-05 ± 1.5e-05
C11U U30G	0.00224 ± 0.00076	0.00185 ± 0.00033	0.00194 ± 0.00021	0.000444 ± 7.4e-05	0.0001 ± 1.4e-05		0.00018 ± 2.9e-05
A14G U57C	0.000646 ± 0.00012	0.000276 ± 4.7e-05	0.000577 ± 0.0001	0.000142 ± 1.8e-05		2530 ± 740	3.29e-05 ± 1.4e-05
C58A C61A	1.11e-05 ± 1.1e-06		< 1e-05				
U55C G66A	0.0117 ± 0.003	0.0116 ± 0.0017	0.00884 ± 0.0018	0.0034 ± 0.00061	0.0004 ± 6.8e-05	1240 ± 450	0.00128 ± 0.0002
C68U C71U	0.000142 ± 7.2e-06	0.000103 ± 7.4e-06	0.000123 ± 6.6e-06	4.62e-05 ± 4.3e-06		1240 ± 180	
G40C U46A	0.000264 ± 7.1e-05	0.000286 ± 4.6e-05	0.000207 ± 3.1e-05	7.92e-05 ± 1.6e-05			
A14C G32C	0.000467 ± 2.4e-05	0.000149 ± 2.1e-05	0.000304 ± 3.5e-05	4.87e-05 ± 1.2e-05		5350 ± 480	
